Assay results taken from patent US7361485.

Legend:
[1] = molecular target: T1, modified pro-caspase-3 with an aggrecanase recognition sequence, P42574
T1 chain: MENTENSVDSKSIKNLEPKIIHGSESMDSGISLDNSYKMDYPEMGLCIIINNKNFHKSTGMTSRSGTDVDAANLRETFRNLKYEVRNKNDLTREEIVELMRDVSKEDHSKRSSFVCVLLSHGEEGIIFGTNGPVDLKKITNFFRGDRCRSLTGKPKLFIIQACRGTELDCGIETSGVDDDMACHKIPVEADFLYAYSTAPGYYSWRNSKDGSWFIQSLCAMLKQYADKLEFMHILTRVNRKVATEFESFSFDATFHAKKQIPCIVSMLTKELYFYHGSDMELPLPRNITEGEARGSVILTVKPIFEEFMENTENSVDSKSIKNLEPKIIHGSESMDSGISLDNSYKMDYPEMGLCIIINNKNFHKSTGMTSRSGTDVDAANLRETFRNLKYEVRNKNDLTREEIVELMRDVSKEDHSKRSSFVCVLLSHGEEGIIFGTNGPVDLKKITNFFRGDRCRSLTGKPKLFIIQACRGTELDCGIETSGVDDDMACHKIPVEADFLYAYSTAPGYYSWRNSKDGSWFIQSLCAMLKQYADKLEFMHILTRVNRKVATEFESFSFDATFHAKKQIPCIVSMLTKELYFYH

[2] = molecular target: T2, modified pro-caspase-7 with an aggrecanase activation sequence, P55210
T2 chain: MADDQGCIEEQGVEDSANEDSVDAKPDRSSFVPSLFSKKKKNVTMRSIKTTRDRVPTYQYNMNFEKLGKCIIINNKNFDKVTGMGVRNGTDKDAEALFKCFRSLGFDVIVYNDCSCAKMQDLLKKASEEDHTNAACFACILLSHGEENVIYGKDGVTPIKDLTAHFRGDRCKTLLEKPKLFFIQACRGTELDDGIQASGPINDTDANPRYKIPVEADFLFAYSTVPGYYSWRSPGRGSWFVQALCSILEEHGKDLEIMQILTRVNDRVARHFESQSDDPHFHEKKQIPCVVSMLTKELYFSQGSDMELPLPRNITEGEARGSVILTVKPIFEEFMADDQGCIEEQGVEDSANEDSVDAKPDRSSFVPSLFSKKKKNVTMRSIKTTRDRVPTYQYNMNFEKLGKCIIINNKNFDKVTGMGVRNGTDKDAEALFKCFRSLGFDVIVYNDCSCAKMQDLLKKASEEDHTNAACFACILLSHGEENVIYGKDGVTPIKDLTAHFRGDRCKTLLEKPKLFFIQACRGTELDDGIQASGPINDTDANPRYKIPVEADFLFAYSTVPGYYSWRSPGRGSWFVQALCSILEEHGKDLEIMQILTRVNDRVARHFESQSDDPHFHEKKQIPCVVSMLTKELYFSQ

B1: aggrecanase (ADAMTS-4) (protein)
chain: FASLSRFVETLVVADDKMAAFHGAGLKRYLLTVMAAAAKAFKHPSIRNPVSLVVTRLVILGSGEEGPQVGPSAAQTLRSFCAWQRGLNTPEDSDPDHFDTAILFTRQDLCGVSTCDTLGMADVGTVCDPARSCAIVEDDGLQSAFTAAHELGHVFNMLHDNSKPCISLNGPLSTSRHVMAPVMAHVDPEEPWSPCSARFITDFLDNGYGHCLLDKPEAPLHLPVTFPGKDYDADRQCQLTFGPDSRHCPQLPPPCAALWCSGHLNGHAMCQTKHSPWADGTPCGPAQACMGGRCLHMDQLQDFNIPQAGGWGPWGPWGDCSRTCGGGVQFSSRDCTRPVPRNGGKYCEGRRTRFRSCNTEDCPTGSALTFREEQCAAYNHRTDLFKSFPGPMDWVPRYTGVAPQDQCKLTCQAQALGYYYVLEPRVVDGTPCSPDSSSVCVQGRCIHAGCDRIIGSKKKFDKCMVCGGDGSGCSKQSGSFRKFRYGYNNVVTIPAGATHILVRQQGNPGHRSIYLALKLPDGSYALNGEYTLMPSPTDVVLPGAVSLRYSGATAASETLSGHGPLAQPLTLQVLVAGNPQDTRLRYSFFVPRPTPSTPRPTPQDWLHRRAQILEILRRRPWAGRK
With B1 the “caspase activity (DEVD-pNA, A405)” value [1] was “Upon incubation of the various pro-caspase variants with their respective target enzymes a clear increase in caspase activity was observed” and the “caspase activity (DEVD-pNA, A405)” value [2] was “Upon incubation of the various pro-caspase variants with their respective target enzymes a clear increase in caspase activity was observed”.
